The target in assay [1] is human IL-12 receptor (IL-12Rβ1 and IL-12Rβ2) on HEK-Blue IL-12 cells (human, UniProt P42701 24-662; Q99665 24-862). The assay can be described thus: cell-based or functional assay.
The target in assay [2] is T1, human IL-12Rβ2, Acro (BLI analyte) (human, UniProt Q99665 24-622, limits assumed).
T1 sequence (looked up): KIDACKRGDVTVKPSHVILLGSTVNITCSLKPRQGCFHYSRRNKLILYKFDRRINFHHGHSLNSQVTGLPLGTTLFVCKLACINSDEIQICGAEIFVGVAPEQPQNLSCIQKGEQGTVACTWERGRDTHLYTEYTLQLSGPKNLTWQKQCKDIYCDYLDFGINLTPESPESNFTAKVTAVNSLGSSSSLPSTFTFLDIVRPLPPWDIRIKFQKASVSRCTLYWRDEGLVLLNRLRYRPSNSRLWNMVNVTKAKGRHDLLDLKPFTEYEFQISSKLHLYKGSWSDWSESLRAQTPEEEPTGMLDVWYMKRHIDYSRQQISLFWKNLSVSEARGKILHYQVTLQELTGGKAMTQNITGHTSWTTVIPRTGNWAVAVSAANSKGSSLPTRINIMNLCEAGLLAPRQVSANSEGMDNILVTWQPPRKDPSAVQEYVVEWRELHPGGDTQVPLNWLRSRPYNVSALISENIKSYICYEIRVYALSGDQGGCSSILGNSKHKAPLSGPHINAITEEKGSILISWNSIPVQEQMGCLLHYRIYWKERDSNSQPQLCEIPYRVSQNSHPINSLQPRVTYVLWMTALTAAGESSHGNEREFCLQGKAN
The assay can be described thus: BLI (Octet), antibody on AHC tip. On the technique in general: BLI is a label-free optical method that tracks binding on a fibre tip over time.

Assay [3] addresses human IL-12Rβ1, Acro (BLI analyte) (human, UniProt P42701 24-545). In words: BLI (Octet), antibody on AHC tip.

B1: DGL534 (bispecific antibody, V domains shown)
V domain 1: QVQLVESGGGLVQAGGSLRLSCLASGRTSNYFMGWFRQAPGKEREFVAAISRSGGGTWYADSVKGRFAISRDNAKNTVNLQMNSLKREDTAVYYCAADRRTGTSVYTVDEYDYWGQGTQVTVEP
V domain 2: QVQLVESGGGLVQPGGSLRLSCAASGFTFSNYAMSWVRQAPGKGLEWVSAINSDGTSTSYADSVKGQFTISRDNAKNTLYLQMNSLKPEDTAVYYCTKWEGDTDSDYKFKDYWGQGTQVTVEP
notes: 115B1 x 19B2
As for B1, in assay [1], the concentration giving a half-maximal response (EC50) – broadly, the concentration that produces a half-maximal response – is 4.5e-10 M (implied) and the “Max Absorbance” value came to 0.69. Moreover, the Kd (in general, the free concentration of one partner at which half of the binding sites on the other are occupied at equilibrium, for simple one-to-one binding) in assay [2] worked out at 0.706 nM. For the same molecule, the affinity in assay [3], expressed as Kd, was 59.5 nM.

B2: DGL586 (bispecific antibody, V domains shown)
V domain 1: QVQLVESGGGLVQAGGSLRLSCAASGRTFSSYVMGWFRQAPGQEREFVAAIMRNGIMTYYADSVKGRFTISRDNAKNTVYLQMNTLKPDDTAVYYCAAASRVGVSISQSSSYTSWGQGTQVTVEP
V domain 2: QVQLVESGGGLVQPGGSLRLSCAASGFTFSNYAMSWVRQAPGKGLEWVSAINSDGTSTSYADSVKGQFTISRDNAKNTLYLQMNSLKPEDTAVYYCTKWEGDTDSDYKFKDYWGQGTQVTVEP
notes: 258B1 x 19B2
Consider B2, for which, in assay [1], the 50% effective concentration (EC50) was 7.7e-11 M (implied) and the “Max Absorbance” value is 0.6. In assay [2], the dissociation constant (Kd) is 0.768 nM. Also, the affinity in assay [3], expressed as Kd, was 7.26 nM.

B3: DGL607 (bispecific antibody, V domains shown)
V domain 1: QVQLVESGGGLMQAGGSLRLSCALSRGIFSAYAMGWFRQVQGKEREFVSGISRSGSTTDYVDTAKGRFTISRDNARDTVYLQMNSLKPEDTAVYYCAAVTGTFPSSTYHNANAYHHWGQGTQVTVEP
V domain 2: QVQLVESGGGLVQAGGSLKLSCAASGGTFSSYAMGWFRQAPGKEREFVAVIMRSGDTTAYVDSVKGRFTVSRDNAKNTVYLQMNSLKPEDAAVYFCAAGRPVTRTYYHTYTYPHDYDYWGQGTQVTVEP
notes: 86B1 x 278B2
B3: in assay [1], the EC50 is 7e-09 M (implied) and the “Max Absorbance” value came out at 0.61. In assay [2], this molecule returned a Kd of 11.8 nM. For the same molecule, in assay [3], the affinity, expressed as Kd, was 27.4 nM.

B4: DGL601 (bispecific antibody, human IgG1, lambda)
heavy 1: not shown
heavy 2: QVQLVESGGGLVQPGGSLRLSCAASGFTFSNYAMSWVRQAPGKGLEWVSAINSDGTSTSYADSVKGQFTISRDNAKNTLYLQMNSLKPEDTAVYYCTKWEGDTDSDYKFKDYWGQGTQVTVEPKSSDKTHTCPPCPAPEAAGAPSVFLFPPKPKDTLMISRTPEVTCVVVDVSHEDPEVKFNWYVDGVEVHNAKTKPREEQYNSTYRVVSVLTVLHQDWLNGKEYKCKVSNKALPAPIEKTISKAKGQPREPQVCTLPPSRDELTKNQVSLSCAVKGFYPSDIAVEWESNGQPENNYKTTPPVLDSDGSFFLVSKLTVDKSRWQQGNVFSCSVMHEALHNRFTQKSLSLSPG
light: SSELTQDPAVSVALGQTVRITCQGDSLSSYYAGWYQQKPGQAPVLVIYGKNNRPSGIPDRFSGSSSEDTASLTITGAQAEDEADYYCNSRDSSDNHLVFGGGTKLTVLGQPKAAPSVTLFPPSSEELQANKATLVCLISDFYPGAVTVAWKADSSPVKAGVETTTPSKQSNNKYAASSYLSLTPEQWKSHRSYSCQVTHEGSTVEKTVAPTECS
notes: 85801_04M04A x 19B2
B4: in assay [1], the EC50 was 6.6e-11 M (implied) and the “Max Absorbance” value stood at 0.79. In addition, in assay [2], the Kd worked out at 0.682 nM. The molecule also displayed a Kd in assay [3] of 1.63 nM.

B5: DGL606 (bispecific antibody, V domains shown)
V domain 1: QLQLVESGGGLVQPGGSLRLSCAASGFTFSSYGMSWVRQAPGKGLEWVSYISAGGGTTTYVDFVKGRFTISRDNAKNMLYLQMNSLKPEDTAVYYCVHAADGSRGQGTQVTVEP
V domain 2: QVQLEESGGGLVQAGGSLRLSCAASGRTFSSYVVGWFRQAPGKEREFVGRISWSGARTYYADSVEGRFTISRDNAKNTVYLQMNSLKPEDTAVYYCAADLKWEVLLSEHYEYWGQGTQVTVEP
notes: 238B1 x 219B2
As for B5, in assay [1], the EC50 was 8.8e-09 M (implied) and the “Max Absorbance” value was found to be 0.92. In assay [2], this molecule returned a Kd of 6.03 nM. Besides, binding in assay [3] was characterised by a dissociation constant (Kd) of 2.68 nM.

B6: DGL605 (bispecific antibody, V domains shown)
V domain 1: QLQLVESGGGLVQPGGSLRLSCAASGFTFSSYGMSWVRQAPGKGLEWVSYISAGGGTTTYVDFVKGRFTISRDNAKNMLYLQMNSLKPEDTAVYYCVHAADGSRGQGTQVTVEP
V domain 2: QVQLVESGGGLVQPGGSLRLSCAASGFTFEPYDMSWFRQAPGKGPEWVSAIDKGGGAGATYYADSVKGRFTISRDNAKKTLYLQMKSLKPEDTAVYYCAITAGPYSDSTPRVAYRGEGTQVTVEP
notes: 238B1 x 93B2
Consider B6, for which, in assay [1], the EC50 was 4.6e-10 M (implied) and the “Max Absorbance” value was 0.74. Also, binding in assay [2] was characterised by a dissociation constant (Kd) of 1.87 nM. For the same molecule, in assay [3], the dissociation constant Kd amounted to 2.25 nM.

B7: DGL568 (bispecific antibody, V domains shown)
V domain 1: QVQLVESGGGLVQAGGSLRLSCAASRSISSFNEMAWYRQAPGEQRELVATIVSTVGFTNYADSVKGRFTISRDNAKNTVYLQMNSLKAEDTAVYYCNARRISTDYWGQGTQVTVEP
V domain 2: QVQLVESGGGLVRPGGSLRLSCAASGFTFSSNGMHWFRQAPGKGLEWVSSIGSGGTSIYYADSVKGRFTISRDNAKNTLYLQMNSLKSDDTAVYYCSKEVTGATRGQGTQVTVEP
notes: 233B1 x 13B2
Regarding B7, in assay [1], the EC50 is above 100 nM. In assay [1], the “Max Absorbance” value was 0.91. Besides, the values for the equilibrium dissociation constant (Kd) in assay [2] and in assay [3] were 2.34 nM and 1.78 nM, respectively.

B8: DGL570 (bispecific antibody, V domains shown)
V domain 1: QVQLVESGGGLVQAGGSLRLSCAASRSISSFNEMAWYRQAPGEQRELVATIVSTVGFTNYADSVKGRFTISRDNAKNTVYLQMNSLKAEDTAVYYCNARRISTDYWGQGTQVTVEP
V domain 2: QVQLVESGGGLVQPGGSLRLSCAASGFTFSSKAMHWFRQAPGKGLEWVSSINSGGAITYYKDSVKGRFTVSRDNAKNILYLEMNSLKPEDTALYYCATDTDGRTRGQGTQVTVEP
notes: 233B1 x 64B2
B8: in assay [1], the EC50 was above 100 nM and the “Max Absorbance” value is 1.44. The molecule also came in with a Kd in assay [2] of 7.66 nM. In addition, the dissociation constant (Kd) in assay [3] worked out at 1.38 nM.

B9: DGL444 (bispecific antibody, human IgG1, lambda)
heavy 1: not shown
heavy 2: QVQLVQSGAEVKKPGASVKVSCKASGYTFIGYYIHWVRQAPGQGLEWMGWINPHSGGTNYAQKFQGRVTMTRDTSISTAYMELSRLRSDDTAIYYCTKEANNWGYAFDIWGQGTMVTVSSASTKGPSVFPLAPSSKSTSGGTAALGCLVKDYFPEPVTVSWNSGALTSGVHTFPAVLQSSGLYSLSSVVTVPSSSLGTQTYICNVNHKPSNTKVDKKVEPKSCDKTHTCPPCPAPEAAGAPSVFLFPPKPKDTLMISRTPEVTCVVVDVSHEDPEVKFNWYVDGVEVHNAKTKPREEQYNSTYRVVSVLTVLHQDWLNGKEYKCKVSNKALPAPIEKTISKAKGQPREPQVCTLPPSRDELTKNQVSLSCAVKGFYPSDIAVEWESNGQPENNYKTTPPVLDSDGSFFLVSKLTVDKSRWQQGNVFSCSVMHEALHNRFTQKSLSLSPG
light: not shown
notes: 195B1 x 85802_08F20A
For the molecule B9, in assay [1], the EC50 is 1.5e-10 M (implied) and the “Max Absorbance” value stood at 0.61. In assay [2], this molecule registered an equilibrium dissociation constant (Kd) of 0.386 nM. This molecule came in with a Kd in assay [3] of 8.96 nM.

B10: DGL514 (bispecific antibody, V domains shown)
V domain 1: QVQLVESGGGLAQAGGSLRLSCAASGRTFSNDDMAWFRQAPGKEREFVAHIDRNAASTNYADSVKGRFTISRDNAKNTVYLQMTRLKPEDTAVYYCAADPDHFGTTWYQQYTYWGPGTQVTVEP
V domain 2: QVQLVESGGGLVQPGGSLRLSCAASGFTFSNYAMSWIRQGPERGFEWVSRINSGGGTTSYADSVKGRFTISRDNAKNTLYLQMNSLKPEDTAVYYCAKHSHPDYSSNYYRPGQGTQVTVEP
notes: 97B1 x 67B2
Consider B10, for which, in assay [1], the EC50 is 3.5e-11 M (implied). Besides, the “Max Absorbance” value in assay [1] amounted to 0.85. In addition, the equilibrium dissociation constant (Kd) in assay [2] is 5.48 nM; in assay [3] it was 9.86 nM.

B11: DGL515 (bispecific antibody, V domains shown)
V domain 1: QVQLVESGGGLAQAGGSLRLSCAASGRTFSNDDMAWFRQAPGKEREFVAHIDRNAASTNYADSVKGRFTISRDNAKNTVYLQMTRLKPEDTAVYYCAADPDHFGTTWYQQYTYWGPGTQVTVEP
V domain 2: QVQLVESGGGLVQAGGSLRVSCAASGRIPSLNTMAWYRQAPGKQREFVAFITNGGTTNYVDSVEGRFSISRDNTKNAVDLQMNSLKPEDTGVYYCNVQISQYPYNYWGQGTQVTVEP
notes: 97B1 x 85B2
For the molecule B11, in assay [1], the EC50 is above 100 nM and the “Max Absorbance” value is 0.64. For the same molecule, the dissociation constant Kd in assay [2] is below 0.001 nM. The molecule also displayed a Kd in assay [3] of 20.8 nM.

B12: DGL482 (bispecific antibody, V domains shown)
V domain 1: QVQLVESGGGLVQAGGSLRLSCAASARIFNSYAVAWFRQTPGKEREFVASISWSGGSTNYADSVKGRFTISRDNAKNTVFLQMNSLKPADTAVYYCAADRNYYPSVLGKYTYWGQGTQVTVEP
V domain 2: QVQLVESGGGLVQPGGSLRLSCAASGFTFSSKAMHWFRQAPGKGLEWVSSINSGGAITYYKDSVKGRFTVSRDNAKNILYLEMNSLKPEDTALYYCATDTDGRTRGQGTQVTVEP
notes: 67B1 x 64B2
Take B12: in assay [1], the EC50 was 2.9e-09 M (implied) and the “Max Absorbance” value worked out at 0.68. The affinity in assay [2], expressed as Kd, was 7.4 nM. Further, the Kd in assay [3] came to 6.83 nM.

B13: DGL487 (bispecific antibody, V domains shown)
V domain 1: QVQLVESGGGLVQAGGSLRLSCAASARIFNSYAVAWFRQTPGKEREFVASISWSGGSTNYADSVKGRFTISRDNAKNTVFLQMNSLKPADTAVYYCAADRNYYPSVLGKYTYWGQGTQVTVEP
V domain 2: QVQLQESGPGLVKPSQTLSLTCTVSGGSITTNYYYWSWIRQPPGKGLEWMGAIAYSGSTYYSPSLKSRTSISRDTSKNQFTLQLSSVTPEDTAVYYCASGINFYSNYPTLNEYDYWGQGTQVTVEP
notes: 67B1 x 190B2
As to B13, in assay [1], the concentration giving a half-maximal response (EC50) is 3.1e-09 M (implied) and the “Max Absorbance” value amounted to 0.64. This molecule also showed a Kd in assay [2] of 16.1 nM. In addition, in assay [3], the dissociation constant Kd came to 5.49 nM.

These data come from patent US20250019450A1 (DIAGONAL THERAPEUTICS, published 2025).
